For two substances, stoichiometry N and reduction of homotrimer formation compared to the WT results are on record in PMC10550236.

In experiment [1] the target is Fem proteins (Apis mellifera). The experiment is described as follows: SDS-PAGE under oligomer-forming (very low denaturation) conditions with Western blot; complexation of Fem proteins (fig. S6); the text does not name the method, taken from the experiments on Csd that precede it.
For experiment [2], the target named is CC^DD, CC fragment with glutamic acid replaced with aspartic acid at two core hydrophilic positions (Apis mellifera). In words: SDS-PAGE under oligomer-forming (very low denaturation) conditions with Western blot; myc-tagged proteins translated in reticulocyte lysate; native loading buffer with no SDS; 0.01% SDS in the gel, 0.15% SDS as running buffer; anti-myc detection; complexes and monomers quantified by chemiluminescence.

As a reminder, the stoichiometry N is the number of molecules, sites or subunits per partner or assembly.

Take Fem proteins (natural protein): the stoichiometry N in experiment [1] turned out to be 3.

With “CC^DD, CC fragment with glutamic acid replaced with aspartic acid at two core hydrophilic positions”, the reduction of homotrimer formation compared to the WT in experiment [2] is 50 to 90%.
